The target in the test is T1, purified HAstV-8 virus particles (strain Yuc-8) (human astrovirus serotype 8 (HAstV-8), strain Yuc-8) (UniProt Q9IFX1).
T1 sequence 1: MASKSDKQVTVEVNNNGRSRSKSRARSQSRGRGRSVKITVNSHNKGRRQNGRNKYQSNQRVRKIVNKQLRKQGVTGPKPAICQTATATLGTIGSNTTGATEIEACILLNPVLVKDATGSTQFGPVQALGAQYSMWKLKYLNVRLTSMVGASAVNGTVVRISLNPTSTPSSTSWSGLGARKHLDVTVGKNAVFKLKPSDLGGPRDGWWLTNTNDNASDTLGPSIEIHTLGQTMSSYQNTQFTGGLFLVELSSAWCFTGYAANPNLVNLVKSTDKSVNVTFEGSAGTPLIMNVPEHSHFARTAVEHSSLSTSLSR
T1 sequence 2: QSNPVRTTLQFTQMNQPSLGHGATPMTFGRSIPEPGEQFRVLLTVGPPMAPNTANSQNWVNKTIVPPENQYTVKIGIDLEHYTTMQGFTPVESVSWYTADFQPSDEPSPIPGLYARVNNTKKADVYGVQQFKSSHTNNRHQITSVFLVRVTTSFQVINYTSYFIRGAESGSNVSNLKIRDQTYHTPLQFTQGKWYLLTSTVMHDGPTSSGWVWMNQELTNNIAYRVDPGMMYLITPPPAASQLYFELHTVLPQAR

recombinant human FCGRT & B2M heterodimer protein (SinoBiological #CT009-H08H), sequence (P55899 24-297): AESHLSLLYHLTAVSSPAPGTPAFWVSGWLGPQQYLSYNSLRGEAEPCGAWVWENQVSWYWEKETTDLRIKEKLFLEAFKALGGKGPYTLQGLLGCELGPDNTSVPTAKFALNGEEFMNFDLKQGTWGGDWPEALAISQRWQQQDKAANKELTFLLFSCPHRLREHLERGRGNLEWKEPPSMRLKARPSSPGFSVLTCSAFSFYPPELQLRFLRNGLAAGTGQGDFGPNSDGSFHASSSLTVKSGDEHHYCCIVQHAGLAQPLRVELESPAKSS
recombinant human FCGRT & B2M heterodimer protein (SinoBiological #CT009-H08H), sequence (P61769 21-119): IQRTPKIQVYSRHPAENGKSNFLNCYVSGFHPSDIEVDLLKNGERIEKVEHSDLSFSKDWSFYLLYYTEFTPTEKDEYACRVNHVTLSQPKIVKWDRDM

“recombinant human FCGRT & B2M heterodimer protein (SinoBiological #CT009-H08H) (from UniProt P55899 24-297; P61769 21-119) (receptor)” registered a FcRn concentration that lowers by 50% the infectivity of the WT chimeric HAstV-1/HAstV-8 virus in Caco-2 cells (neutralization assay with different concentrations of FcRn) of 100 ng/mL.

For the origin of these results see article PMC12289001.
